Here are results for eight molecules from US20200317768A1 (published 2020).

Substitutions are numbered along the chain they refer to. Numbers in names are those of the source.

B1: MS_M103205H795-SG1/M103202L889-SK1 (antibody, human IgG1, kappa)
heavy: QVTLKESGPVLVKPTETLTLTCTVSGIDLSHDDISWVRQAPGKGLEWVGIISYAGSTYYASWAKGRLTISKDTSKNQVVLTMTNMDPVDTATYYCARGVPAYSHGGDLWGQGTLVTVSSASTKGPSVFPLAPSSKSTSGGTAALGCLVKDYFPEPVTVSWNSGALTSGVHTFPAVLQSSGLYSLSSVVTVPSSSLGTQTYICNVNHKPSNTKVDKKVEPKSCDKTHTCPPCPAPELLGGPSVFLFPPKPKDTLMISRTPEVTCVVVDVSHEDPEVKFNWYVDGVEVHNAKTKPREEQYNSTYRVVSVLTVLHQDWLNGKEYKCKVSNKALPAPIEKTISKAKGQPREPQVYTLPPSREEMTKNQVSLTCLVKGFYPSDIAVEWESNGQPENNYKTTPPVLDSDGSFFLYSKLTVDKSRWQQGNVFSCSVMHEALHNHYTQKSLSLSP
light: DIVMTQSPATLSLSPGERATLSCTSSQSVYHANWLSWFQQKPGQPPKLLIYWASTLAYGVPSRFSGSGSGTDFTLTISSLQPEDAATYYCAGGYGGGRYAFGQGTKVEIKRTVAAPSVFIFPPSDEQLKSGTASVVCLLNNFYPREAKVQWKVDNALQSGNSQESVTEQDSKDSTYSLSSTLTLSKADYEKHKVYACEVTHQGLSSPVTKSFNRGEC
notes: Parent antibody with SG1 human heavy chain constant region; also called MS1032LO06-SG1
B2: M103205H795-MY344 / M103202L889-SK1 (antibody, human IgG1, kappa)
heavy: QVTLKESGPVLVKPTETLTLTCTVSGIDLSHDDISWVRQAPGKGLEWVGIISYAGSTYYASWAKGRLTISKDTSKNQVVLTMTNMDPVDTATYYCARGVPAYSHGGDLWGQGTLVTVSSASTKGPSVFPLAPSSKSTSGGTAALGCLVKDYFPEPVTVSWNSGALTSGVHTFPAVLQSSGLYSLSSVVTVPSSSLGTQTYICNVNHKPSNTKVDKKVEPKSCDKTHTCPPCPAPELLNGPSVFLFPPKPKDTLMISRTPEVTCVVVDVSDEDPEVKFNWYVDGVEVHNAKTKPREELYNSTYRVVSVLTVLHRDWLNGKEYKCKVSNKALPKPIEKTISKAKGQPREPQVYTLPPSREEMTKNQVSLTCLVKGFYPSDIAVEWESNGQPENNYKTTPPVLDSDGSFFLYSKLTVKKSRWQQGNVFSCSVMHEALHNHYTQKSLSLSP
light: B1 light
notes: CH with G236N/H268D/Q295L/Q311R/A330K/D413K against SG1 (EU numbering); also called MS1032LO06-MY344
B3: M103205H795-MY101 / M103202L889-SK1 (antibody, human IgG1, kappa)
heavy: B2 heavy with D270E, L297Q, R313Q, P398M, K415D
light: B1 light
notes: CH with G236N/H268E/A330K/P396M against SG1 (EU numbering); also called MS1032LO06-MY101
B4: M103205H795-PK2 / M103202L889-SK1 (antibody, human IgG1, kappa)
heavy: B2 heavy with D270E, L297Q, R313Q, P398M, S402R
light: B1 light
notes: CH with G236N/H268E/A330K/P396M/S400R/D413K against SG1 (EU numbering); also called MS1032LO06-PK2; MS103205H795-PK2
B5: M103205H795-MY201 / M103202L889-SK1 (antibody, human IgG1, kappa)
heavy: B2 heavy with L297Q, R313Q, K415D
light: B1 light
notes: CH with G236N/H268D/A330K against SG1 (EU numbering); also called MS1032LO06-MY201
B6: M103205H795-MY205 / M103202L889-SK1 (antibody, human IgG1, kappa)
heavy: B2 heavy with R313Q, K415D
light: B1 light
notes: CH with G236N/H268D/Q295L/A330K against SG1 (EU numbering); also called MS1032LO06-MY205
B7: M103205H795-MY351 / M103202L889-SK1 (antibody, human IgG1, kappa)
heavy: B2 heavy with L297Q
light: B1 light
notes: CH with G236N/H268D/Q311R/A330K/D413K against SG1 (EU numbering); also called MS1032LO06-MY351
B8: M103205H795-MY335 / M103202L889-SK1 (antibody, human IgG1, kappa)
heavy: B2 heavy with N238T, L297Q
light: B1 light
notes: CH with G236T/H268D/Q311R/A330K/D413K against SG1 (EU numbering); also called MS1032LO06-MY335

The target in one assay is T1, cynomolgus monkey FcγRIIa1 extracellular domain, C-terminal His-tag (cynomolgus monkey).
T1 construct: also called cyno FcγRIIa1; cynoFcgRIIa1; not shown: His-tag added to C-terminus
T1 chain: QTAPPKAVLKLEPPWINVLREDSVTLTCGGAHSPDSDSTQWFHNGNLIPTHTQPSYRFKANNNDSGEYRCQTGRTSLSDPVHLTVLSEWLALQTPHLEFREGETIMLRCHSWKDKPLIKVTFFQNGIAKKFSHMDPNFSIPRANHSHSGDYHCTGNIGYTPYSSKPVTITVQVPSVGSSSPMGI
Description: SPR (BIACORE), antibody captured, FcγR analyte. Here is the method: (§1) The kinetic analysis of interactions between these antibodies and FcγR was carried out using BIACORE® T200 or BIACORE® 4000 (GE Healthcare). HBS-EP+ (GE Healthcare) was used as the running buffer, and the measurement temperature was set to 25° C. A chip produced by immobilizing Protein A. Protein A/G or mouse anti-human IgG kappa light chain (BD Biosciences) onto a Series S Sensor Chip CM4 or CM5 (GE Healthcare) by the amine-coupling method was used. […] After the measurement, the antibody captured on the chip was washed off by allowing reaction with 10 mM glycine-HCl, pH1.5 and 25 mM NaOH so that the chip was regenerated and used repeatedly. The sensorgrams obtained as measurement results were analyzed by the 1:1 Langmuir binding model using the BIACORE® Evaluation Software to calculate the binding rate constant ka (L/mol/s) and dissociation rate constant kd (l/s), and the dissociation constant KD (mol/L) was calculated from these values. […] Regarding such interactions, KD values were calculated using the following 1:1 binding model described in BIACORE® T100 Software Handbook BR1006-48 Edition AE.
(§2) The behavior of interacting molecules according to the 1:1 binding model on BIACORE® can be described by Equation 1: Req=C·R max/(KD+C)+RI, wherein, Req is a plot of steady-state binding levels to analyte concentration. C is concentration, RI is bulk refractive index contribution in the sample, and Rmax is analyte binding capacity of the surface. When this equation is rearranged, KD can be expressed as Equation 2: KD=C·Rmax/(Req−RI)−C. KD can be calculated by substituting the values of Rmax, RI, and C into Equation 1 or Equation 2. From the current measurement conditions, RI=0, C=2 μmol/L can be used.
(SPR reads the build-up and loss of mass on a sensor chip optically.)
For orientation: Kd means a measure of binding affinity in units of concentration. Molecule B1 came in with a Kd of 3200 nM.

For B2, the Kd is 890 nM.

B3 had an equilibrium dissociation constant (Kd) of 1100 nM.

Consider B4, for which the affinity, expressed as Kd, was 1300 nM.

B5 had an equilibrium dissociation constant (Kd) of 1400 nM.

As for B6, binding was characterised by a dissociation constant (Kd) of 900 nM.

The molecule B7 showed an equilibrium dissociation constant (Kd) of 920 nM.

Turning to B8, the equilibrium dissociation constant (Kd) was 2000 nM.

In another assay the target is T2, cynomolgus monkey FcγRIIa3 extracellular domain, C-terminal His-tag (cynomolgus monkey).
T2 construct: also called cyno FcγRIIa3; cynoFcgRIIa3; not shown: His-tag added to C-terminus
T2 chain: T1 chain with P95T, T121A, A128S, H133P, D135N
The assay is described as follows: SPR (BIACORE), antibody captured, FcγR analyte. Here is the method:
as §1, §2
B1 gave a Kd of 1700 nM.

In turn, B2 gave an equilibrium dissociation constant (Kd) of 2200 nM.

Regarding B3, the Kd turned out to be 3600 nM.

The molecule B4 yielded a Kd of 3800 nM.

For B5, the affinity, expressed as Kd, was 3900 nM.

In turn, B6 displayed a Kd of 3000 nM.

Regarding B7, the Kd amounted to 1900 nM.

B8 yielded a dissociation constant (Kd) of 2700 nM.

In the next assay the target is T3, human FcγRIIaH extracellular domain, C-terminal His-tag (human, UniProt P12318 34-217).
T3 construct: also called human FcγRIIa (type H); FcgRIIaH; not shown: His-tag added to C-terminus
T3 sequence: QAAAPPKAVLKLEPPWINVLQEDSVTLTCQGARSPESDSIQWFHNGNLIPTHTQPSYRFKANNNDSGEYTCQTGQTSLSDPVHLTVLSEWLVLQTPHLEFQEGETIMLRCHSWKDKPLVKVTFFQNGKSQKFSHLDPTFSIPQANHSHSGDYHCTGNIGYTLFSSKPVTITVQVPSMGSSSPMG
The assay is described as follows: SPR (BIACORE), antibody captured, FcγR analyte. Here is the method:
as §1, §2
Turning to B1, binding was put at a Kd of 690 nM.

B2 had a dissociation constant Kd of 670 nM.

On to B3, for which the Kd came to 490 nM.

B4: the Kd was found to be 570 nM.

Take B5: the Kd stood at 910 nM.

Molecule B6 came in with a Kd of 470 nM.

B7 registered a Kd of 1000 nM.

B8 came in with a Kd of 290 nM.
